In doi:10.1101/2020.07.29.226720 (bioRxiv, 2020):

B1: AthPEPCK1 Δ101 truncated mutant (enzyme, Arabidopsis thaliana, UniProt Q9T074 102-671, looked up)
chain: ESGPKVVRGDPAEKKTDGSTTPAYAHGQHHSIFSPATGAVSDSSLKFTHVLYNLSPAELYEQAIKYEKGSFITSNGALATLSGAKTGRAPRDKRVVRDATTEDELWWGKGSPNIEMDEHTFMVNRERAVDYLNSLEKVFVNDQYLNWDPENRIKVRIVSARAYHSLFMHNMCIRPTQEELESFGTPDFTIYNAGQFPCNRYTHYMTSSTSVDLNLARREMVILGTQYAGEMKKGLFSVMHYLMPKRRILSLHSGCNMGKDGDVALFFGLSGTGKTTLSTDHNRYLIGDDEHCWTETGVSNIEGGCYAKCVDLSREKEPDIWNAIKFGTVLENVVFDEHTREVDYSDKSVTENTRAAYPIEFIPNAKIPCVGPHPTNVILLACDAFGVLPPVSKLNLAQTMYHFISGYTALVAGTEDGIKEPTATFSACFGAAFIMLHPTKYAAMLAEKMKSQGATGWLVNTGWSGGSYGVGNRIKLAYTRKIIDAIHSGSLLKANYKKTEIFGFEIPTEIEGIPSEILDPVNSWSDKKAHKDTLVKLGGLFKKNFEVFANHKIGVDGKLTEEILAAGPIF
B2: AthPEPCK1 Δ19 truncated mutant (enzyme, Arabidopsis thaliana, UniProt Q9T074 20-671, looked up)
chain: GPVMPKITTGAAKRGSGVCHDDSGPTVNATTIDELHSLQKKRSAPTTPINQNAAAAFAAVSEEERQKIQLQSISASLASLTRESGPKVVRGDPAEKKTDGSTTPAYAHGQHHSIFSPATGAVSDSSLKFTHVLYNLSPAELYEQAIKYEKGSFITSNGALATLSGAKTGRAPRDKRVVRDATTEDELWWGKGSPNIEMDEHTFMVNRERAVDYLNSLEKVFVNDQYLNWDPENRIKVRIVSARAYHSLFMHNMCIRPTQEELESFGTPDFTIYNAGQFPCNRYTHYMTSSTSVDLNLARREMVILGTQYAGEMKKGLFSVMHYLMPKRRILSLHSGCNMGKDGDVALFFGLSGTGKTTLSTDHNRYLIGDDEHCWTETGVSNIEGGCYAKCVDLSREKEPDIWNAIKFGTVLENVVFDEHTREVDYSDKSVTENTRAAYPIEFIPNAKIPCVGPHPTNVILLACDAFGVLPPVSKLNLAQTMYHFISGYTALVAGTEDGIKEPTATFSACFGAAFIMLHPTKYAAMLAEKMKSQGATGWLVNTGWSGGSYGVGNRIKLAYTRKIIDAIHSGSLLKANYKKTEIFGFEIPTEIEGIPSEILDPVNSWSDKKAHKDTLVKLGGLFKKNFEVFANHKIGVDGKLTEEILAAGPIF

Biological target: the molecule itself
Test: SEC

| Protein | stoichiometry N |
| --- | --- |
| B1 | 6 |
| B2 | 6 |
